Test results taken from patent US20250122242A1, “SELECTION SYSTEMS, PEPTIDES DETERMINED THEREWITH, AND METHODS OF USING SAME” (Wisconsin Alumni Research Foundation, priority 2023, published 2025).

Experiments:
Aβ42-T7n [1] = molecular target: T1, Aβ42-T7n (UniProt P00573+P05067); details: for Fold enrichment in negative vs. positive selection: percent reads negative vs. positive selection; for Percent total reads (negative selection) / Rank (negative selection): subsequent negative selection against Aβ42, high-throughput sequencing
T1 sequence (P05067+P00573 fused): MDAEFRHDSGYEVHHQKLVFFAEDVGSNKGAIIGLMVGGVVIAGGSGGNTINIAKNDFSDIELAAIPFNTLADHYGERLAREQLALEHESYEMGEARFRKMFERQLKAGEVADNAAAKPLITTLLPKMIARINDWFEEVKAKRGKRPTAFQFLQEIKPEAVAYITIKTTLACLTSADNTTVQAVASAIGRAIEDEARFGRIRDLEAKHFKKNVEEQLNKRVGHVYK
Description: To create a negative selection, we placed gIII-neg, a dominant-negative form of gIII,^44 under PT7 in our selection circuit. Inhibition of a non-target APP (ex. Aβ42) triggers pIII-neg expression and poisons phage proliferation. A second plasmid produces small amounts of pIII from the phage shock promoter (FIG. 16A). All SPs infecting cells encoding this negative selection receive sufficient pIII to propagate. However, SP that carry a promiscuous or false positive cyclic peptide will also produce pIII-neg and generate non-infectious progeny (FIGS. 16B and 16C). We subjected the hIAPP round 5 phage population to four rounds of negative selection, diluting the phage by 100-fold each round (FIG. 5B).
(§1) Single colonies of host cells transformed with the appropriate selection plasmids were used to make overnight cultures in 2×YT with maintenance antibiotics. The overnight culture was diluted (1:100) into 4-5 mL DRM with maintenance antibiotics and incubated at 37° C. with shaking until the OD600 of the culture reached ˜0.5, upon which the expanded phage library was added at a titer of 1×10^6 pfu/mL. The culture was incubated at 37° C. with shaking overnight (13-18 h). The next day, the culture was centrifuged at 8,000 rcf for 2 min to obtain the supernatant containing phage. The collected phage was diluted into fresh host cell cultures (10 to 1,000-fold) for the next round of selection, while the rest was stored at 4° C. for downstream analysis. This process was repeated until a significant increase in phage propagation was observed compared with the parent library. Both positive and negative selection rounds were performed using this procedure.
(§2) Sample preparation. Phage stocks collected from the final rounds of library selection were first amplified using LY0145 and LY0146. The PCR product was purified, and adapters added using LY0147 and LY0148. The resulting PCR product was purified and barcoded through a final PCR using index primers to add unique indices for shared Illumina NovaSeq sequencing. The final PCR product was purified, and the concentration measured by Nanodrop. Further sample quality control was performed by the University of Wisconsin-Madison Biotechnology Center (UWBC).
(§3) High-throughput sequencing and data analysis. High-throughput sequencing was performed by UWBC using a shared sequencing service on the NovaSeq 6000 platform. Sequencing reads were demultiplexed by UWBC and analyzed using custom-written Python scripts.

hIAPP = molecular target: T2, hIAPP (Homo sapiens, UniProt P10997); test: TEM analysis of hIAPP fibril formation; format: biochemical; details: 10 μM hIAPP, 40 μM cyclic peptide; for hIAPP fibril formation / aggregation onset by TEM: 2 h; for morphology of hIAPP fibrils by TEM: longer incubation (14 h)
T2 construct: A 1 mg portion of amylin trifluoroacetate salt (Bachem) was purchased as lyophilized solid in a vial; purchased Bachem
T2 sequence (P10997 34-70 limits assumed): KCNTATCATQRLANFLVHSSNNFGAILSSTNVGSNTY
Description: Transmission electron microscopy (TEM) was performed at the University of Wisconsin School of Medicine and Public Health Electron Microscopy facility. hIAPP and cyclic peptide were dissolved in 25 mM sodium phosphate buffer (pH 6.8 with 0.4% DMSO) to achieve a molar ratio of 1:4 at concentrations of hIAPP=10 μM and cyclic peptide=40 μM. The sample was incubated quiescently at 32° C. before TEM analysis. 2 μL of the sample was placed onto Formvar-coated copper grids and the excess liquid was blotted away. 2 μL of diluted Nano-W solution was then added to stain the grids and the excess liquid was blotted away. The TEM analysis was performed on Philips CM120 at 80 kV and digital images were obtained with an AMT BioSprint12 camera.

hIAPP-T7n [2] = molecular target: T3, hIAPP-T7n (UniProt P00573+P10997); details: for Percent total reads (positive selection) / Rank (positive selection): positive selection on hIAPP, high-throughput sequencing; for Rank (positive selection): top enriched sequences
T3 sequence (P10997+P00573 fused): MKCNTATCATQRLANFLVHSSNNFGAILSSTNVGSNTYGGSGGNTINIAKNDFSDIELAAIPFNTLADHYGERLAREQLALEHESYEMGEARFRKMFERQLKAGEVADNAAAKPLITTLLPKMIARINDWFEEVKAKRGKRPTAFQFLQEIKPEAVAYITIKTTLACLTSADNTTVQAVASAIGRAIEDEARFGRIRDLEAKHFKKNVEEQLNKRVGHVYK
Description: (§4) Next, we examined if our system could discover inhibitors of other disease-associated APPs. We targeted human islet amyloid polypeptide (hIAPP), which forms amyloid deposits in patients with type-2 diabetes that are hypothesized to contribute to […] dysfunction.^40 To create a selection for hIAPP aggregation inhibitors, we simply cloned hIAPP in place of Aβ42 in our selection circuit (FIG. 2B). We used an SP-encoded CZ6 SICLOPPS library (Z=NDT codon encoded amino acid: R, N, D, C, G, H, I, L, F, S, Y, or V) (˜3×10^6 total sequences). This codon set was chosen to reduce the theoretical library size and facilitate library cloning. The library (total of ˜5×10^6 transformants) was cloned on a SP obtained from an additional 250 hours of PACE using a more stringent selection (FIGS. 10A-10D).
We performed five rounds of selection, diluting the SP pool by ten-fold each round (FIG. 4A). […] To verify that we selected phage with higher activity, we measured the propagation of the SP from each round on hIAPP selection cells, normalizing input phage titers to […] to enable head-to-head comparison between phage pools.
as §1, §2, §3

Aβ42-T7n [3] = molecular target: T1, Aβ42-T7n; details: clonal SP encoding the sequence
Description: Therefore, we turned to a split-T7 RNA polymerase (T7 RNAP) reporter used to evolve proteins with improved soluble expression.^33 In our new selection, host E. coli express an aggregation-prone protein (APP) fused to the N-terminal half of split-T7 RNAP (T7n). When the APP-T7n fusion is translated, it misfolds due to the APP, preventing T7n from associating with the C-terminal half of split-T7 RNAP (T7c; FIG. 2A). If a SP-encoded inhibitor binds to and prevents APP aggregation, the fused T7n will remain folded and join with T7c to produce full-length T7 RNAP. The reconstituted T7 RNAP then transcribes gIII, which we place under control of the T7 promoter (PT7), producing pill and allowing the SP to reproduce (FIGS. 2A and 2B).
We used the SICLOPPS method to biosynthesize cyclic peptides that can be selected in E. coli.^15 In SICLOPPS, a precursor fusion consisting of the C-terminal half of the Ssp DnaE split intein, the peptide sequence to be cyclized, and the N-terminal half of the same split intein undergoes intein splicing after translation to produce head-to-tail cyclized peptides (FIG. 7).
(§5) Strain S206035 was used for plasmid cloning, amplification, and phage assays. Strain S220835 was used for SP cloning and plaque assays. Plasmids and SPs were cloned by USER assembly or blunt-end ligation. Competent cells were prepared and transformed using the TSS method. Phage propagation and plaque assays were performed as previously described.^54 Unless otherwise noted, phage propagation assays used an input of […] phage to infect a 2 mL culture of host cells.

hIAPP-T7n [4] = molecular target: T3, hIAPP-T7n; details: clonal SP encoding the sequence (FIG. 5E)
Description: as §4, §5

Substance | Fold enrichment in negative vs. positive selection (Aβ42-T7n [1]) | Percent total reads (negative selection) (Aβ42-T7n [1]) [%] | Rank (negative selection) (Aβ42-T7n [1]) | hIAPP fibril formation / aggregation onset by TEM (hIAPP) | morphology of hIAPP fibrils by TEM (hIAPP) | Percent total reads (positive selection) (hIAPP-T7n [2]) [%] | Rank (positive selection) (hIAPP-T7n [2]) | phage propagation activity (fitness) on Aβ42-T7n selection (Aβ42-T7n [3]) | share of sequencing reads in SP pool (hIAPP-T7n [2]; round 5 of hIAPP positive selection, deep sequencing) [%] | phage propagation activity on hIAPP-T7n selection (hIAPP-T7n [4])
CDLGVFR (cyclised; Circular) [cyclo-CDLGVFR] | 410.79 | 31.22 | 1 | delay hNAPP aggregation | do not change the overall appearance | 0.08 | 14 |  |  | 
CHVVGVI (cyclised; Circular) [cyclo-CHVVGVI] | 0.003 | 0.29 | 20 | no fibrils are observed | No gross differences in morphology | 94.40 | 1 | propagated robustly | ~95 | propagated robustly
CRCVFSG (cyclised; Circular) [cyclo-CRCVFSG] | 701.46 | 24.55 | 2 | delay hNAPP aggregation | do not change the overall appearance | 0.04 | 20 |  |  | 
